B1: Hairpin Ribozyme (parent)
chain: GUCCUCUUUCACGUGCGCGUGAAAGAGAGAAGUGAACCAGAGAAACACACGUUGUGGUAUAUUACCUGGUA

In the data set the parent is B1. As to the kind of experiment: self-cleavage, relative activity (ratio to wild type); higher = more cleavage; co-transcriptional.
Consider G17A G40U, for which the self-cleavage was determined as 0.203. Under A11G U63A stands 0.116. Under G34A A36C stands 0.956; under G21A A22G, 0.728. Under U9G U53C stands 0.736; under U20C A45U, 0.076. Consider U2A C66U, for which the self-cleavage was determined as 0.127. Next, G56U A64U: 0.173; U7G A36G: 0.828. Under A43U A47G stands 0.121; under C10U U20C, 0.722.

As for G15C U58A, the self-cleavage was 0.751. Next, G25A A59G: 0.138; A35G A44G: 0.177.

Regarding C3U A49C, the self-cleavage is 0.112. Under G29A U58A stands 0.165; under A23U A26G, 0.88; under C38U G57A, 0.229. Next, C46A G68A: 0.12; U5G U67G: 0.164. Under C16A A26C stands 0.488. Take A44U G54C: the self-cleavage is 0.0888. As for G40U C48A, the self-cleavage is 0.0709. Next, G29C C38U: 0.145. Next, A26U G56C: 0.135. Next, U53C G57U: 0.234. On to G19U A24U, for which the self-cleavage came to 0.684. Next, A44G A45C: 0.252; U9G A61C: 0.115; C12A C50U: 0.399.

On to C46A U63C, for which the self-cleavage came out at 0.225. Under A30U A47U stands 0.0724. Under C48A G51C stands 0.152. Next, U9G G68A: 0.247; U7A G34A: 1.39; A64C A71C: 0.28. As for C6G A43U, the self-cleavage came to 0.0915.

Regarding U5G C10G, the self-cleavage worked out at 0.164. Next, A45U: 0.14; A28G A45C: 0.279; C18U G69U: 0.272. Consider A44C C50A, for which the self-cleavage stood at 0.0943. Next, U55G U67C: 0.181; U55C A59U: 0.239. Under G1U C38U stands 0.127; under C4U U70G, 0.214. For G27U G57A, the self-cleavage turned out to be 0.209. With C10G G40U, the self-cleavage is 0.161. Under U9G U20A stands 0.531; under C6A A23C, 0.52. As to A11U G54U, the self-cleavage came to 0.565. Under C16G A28G stands 0.959; under U9C A35G, 0.688. C12G U70C: the self-cleavage was 0.699. Next, U20G A36U: 0.749; C16G U70A: 0.728. Under U53A U62G stands 0.146; under G29U G40C, 0.0749. Under G17C U52C stands 0.778. Consider C18A A30G, for which the self-cleavage was 0.115.

With U8A U60A, the self-cleavage was found to be 0.755. With G27U A64G, the self-cleavage amounted to 0.205. As for C37G G51A, the self-cleavage was 0.647. C18A G57A: the self-cleavage amounted to 0.209. Consider G1C A44G, for which the self-cleavage was 0.0352. Under U20A G34A stands 0.993; under U33C G54U, 0.141. Next, U5C A26C: 0.497; G25C A44U: 0.112. Under G17U U53G stands 0.954. Regarding C4G G27U, the self-cleavage stood at 0.31. C12U A28C: the self-cleavage was found to be 0.437.

Consider G29A G40A, for which the self-cleavage stood at 0.133. Next, C18A C65U: 0.254; U60A A61G: 0.216.

Consider A26U G69U, for which the self-cleavage was 0.225. Under U20A U67C stands 0.237. Next, A11C A22U: 0.554; U14G G15A: 0.932; C18A G40U: 0.174.

C6A A61C: the self-cleavage was 0.225. Next, A36G U58C: 1; U2G G68U: 0.2. Under U2C C37U stands 0.113. Under A30U U55G stands 0.106. With G27A G32U, the self-cleavage came out at 0.0607.

As for A11C C38A, the self-cleavage worked out at 0.171. Next, G1A G13U: 0.208; A39C G69C: 0.188. As to U7C U53C, the self-cleavage came out at 0.677. Regarding A23G C37G, the self-cleavage stood at 0.311. Next, A45C U70A: 0.222; U52C A64G: 0.546. For G32C U53C, the self-cleavage is 0.155. Next, U52A A64C: 0.253; A31C U33A: 0.241; A31G A71C: 1.05.

On to U7C U20A, for which the self-cleavage amounted to 0.82. Under A41U U52A stands 1.23; under G40U A71G, 0.209; under A39U A49U, 0.0838. Under G15A G68A stands 0.362; under U33G U62C, 0.0629.

As to U20G U55G, the self-cleavage came out at 0.293.

In the case of A26C A35C, the self-cleavage worked out at 0.726. Next, U52A U55C: 0.438; U33A A41C: 0.0532. Next, C12U A64U: 0.241; C38U A41C: 0.619; C18G C66A: 0.194. Next, U67A G68U: 0.128.

On to A26U G57U, for which the self-cleavage stood at 0.143. Next, A22U A30G: 0.159. Next, G27A G40A: 0.143; U9C A28C: 0.394. For the variant U7G C18A, the self-cleavage turned out to be 1.01. Under G40A A45U stands 0.149; under G42C U55C, 0.158. Under U8A G25U stands 0.114. Next, G1C A64G: 0.143; A23C C50U: 0.373; G15U G21U: 0.868. On to G25U A47C, for which the self-cleavage was determined as 0.241. As for G27A U62G, the self-cleavage was 0.221. Under A31U U33C stands 0.0766; under U7A U20A, 0.723; under A31U A47C, 0.109. Under G54A G69U stands 0.143; under G17A G25C, 0.552; under U5A A44U, 0.125. Under C4G C50U stands 0.154; under C3U G13U, 0.429.

For G69A A71U, the self-cleavage was 0.152. Next, A22G U55A: 0.318; A28C U60G: 0.383; G25A A43G: 0.133. U2A C50A: the self-cleavage is 0.219.

Turning to G15A A39C, the self-cleavage is 0.508.

With C46U A49C, the self-cleavage was 0.201. As to A39G A41U, the self-cleavage was 0.474. Next, C48A U58C: 0.154.

In the case of U55G G57C, the self-cleavage is 0.126.

As to G21C U60G, the self-cleavage was determined as 0.55. On to U14G U62G, for which the self-cleavage was found to be 0.106. Under C4A G54U stands 0.118. Next, C16U G34A: 1.26; A23U A36G: 0.681; C37A G56U: 0.189. Next, U5G U58C: 0.25; G29A C66U: 0.194; C10U G34U: 1.09. For C12A U63A, the self-cleavage came to 0.102. Under G1U A28G stands 0.0771; under U7A C48G, 0.0789. Under U9A U55A stands 0.225.

As for G56U U60G, the self-cleavage was 0.231.

For the variant U7C G57C, the self-cleavage came to 0.107.

With U60A A71U, the self-cleavage worked out at 0.616. Next, U5A C65A: 0.22. Next, C3G U7A: 0.321.

For G34A C50A, the self-cleavage is 0.312. Under A47G U55C stands 0.207; under U67A G69A, 0.116. Turning to C18A A28U, the self-cleavage is 0.844. On to G19U, for which the self-cleavage was 0.891. Under A26G G29A stands 0.159; under G40C G68A, 0.132.

The values are drawn from the RNAGym collection of RNA variant scans (doi:10.7554/elife.80360).
